This note sets out measurements from patent US20210040161A1 (CALIFORNIA INSTITUTE OF TECHNOLOGY, published 2021).

Data set [1] deals with the molecule itself. In words: CuCl2 crosslinking in E. coli lysate, SDS-PAGE, anti-HA Western; full-length homodimer band.
The target in another data set is T1, TlpA_CC R179E (G1B).
T1 construct: Purified coiled-coil domain of TlpA used for CD; The entry already holds the initiating Met, the R179E mutation (numbered on full-length TlpA), C-terminal Leu-Gly and a His6 tag; also called TlpA-G1B (R179E); R179E variant
T1 chain: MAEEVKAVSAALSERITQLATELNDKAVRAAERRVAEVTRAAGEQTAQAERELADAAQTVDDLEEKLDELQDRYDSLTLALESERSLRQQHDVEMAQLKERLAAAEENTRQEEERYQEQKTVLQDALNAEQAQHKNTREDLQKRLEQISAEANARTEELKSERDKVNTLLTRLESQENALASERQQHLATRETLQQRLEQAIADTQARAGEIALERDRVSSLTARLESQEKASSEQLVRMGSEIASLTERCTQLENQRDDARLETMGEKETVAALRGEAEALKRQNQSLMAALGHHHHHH
The data set can be described thus: CD melting curve at 222 nm, purified coiled-coil domains, 3 uM in PBS.

Positions count from the first letter of the chain named. In names and notes the source's numbering stands.

B1: wild-type TlpA, full length, C-terminal HA tag (crosslinking construct) (other)
chain: MRPATYEPEQIIEAGLALQAEGRNITGFALRNQVGGGNPTRLRQIWDEYQASQSTVVTEPVAELPVEVAEEVKAVSAALSERITQLATELNDKAVRAAERRVAEVTRAAGEQTAQAERELADAAQTVDDLEEKLDELQDRYDSLTLALESERSLRQQHDVEMAQLKERLAAAEENTRQREERYQEQKTVLQDALNAEQAQHKNTREDLQKRLEQISAEANARTEELKSERDKVNTLLTRLESQENALASERQQHLATRETLQQRLEQAIADTQARAGEIALERDRVSSLTARLESQEKASSEQLVRMGSEIASLTERCTQLENQRDDARLETMGEKETVAALRGEAEALKRQNQSLMAALSGNKQTGGQNA
notes: also called wt; not shown: C-terminal HA tag
Turning to B1, the binding result in data set [1] is given as “binds”.

B2: TlpA_CC E180R (G1A) (designed binder)
chain: T1 chain with E112R, E113R
notes: Purified coiled-coil domain of TlpA used for CD; The entry already holds the initiating Met, the E180R mutation (numbered on full-length TlpA), C-terminal Leu-Gly and a His6 tag; also called TlpA-G1A (E180R); E180R variant
Regarding B2, in the data set with TlpA_CC R179E (G1B), the binding result is reported as “binds”.
